US20220064330A1

Experiments:
complement C3 = complement C3 (UniProt P01024)

Chain of complement C3, P01024 (P01024 whole entry, looked up): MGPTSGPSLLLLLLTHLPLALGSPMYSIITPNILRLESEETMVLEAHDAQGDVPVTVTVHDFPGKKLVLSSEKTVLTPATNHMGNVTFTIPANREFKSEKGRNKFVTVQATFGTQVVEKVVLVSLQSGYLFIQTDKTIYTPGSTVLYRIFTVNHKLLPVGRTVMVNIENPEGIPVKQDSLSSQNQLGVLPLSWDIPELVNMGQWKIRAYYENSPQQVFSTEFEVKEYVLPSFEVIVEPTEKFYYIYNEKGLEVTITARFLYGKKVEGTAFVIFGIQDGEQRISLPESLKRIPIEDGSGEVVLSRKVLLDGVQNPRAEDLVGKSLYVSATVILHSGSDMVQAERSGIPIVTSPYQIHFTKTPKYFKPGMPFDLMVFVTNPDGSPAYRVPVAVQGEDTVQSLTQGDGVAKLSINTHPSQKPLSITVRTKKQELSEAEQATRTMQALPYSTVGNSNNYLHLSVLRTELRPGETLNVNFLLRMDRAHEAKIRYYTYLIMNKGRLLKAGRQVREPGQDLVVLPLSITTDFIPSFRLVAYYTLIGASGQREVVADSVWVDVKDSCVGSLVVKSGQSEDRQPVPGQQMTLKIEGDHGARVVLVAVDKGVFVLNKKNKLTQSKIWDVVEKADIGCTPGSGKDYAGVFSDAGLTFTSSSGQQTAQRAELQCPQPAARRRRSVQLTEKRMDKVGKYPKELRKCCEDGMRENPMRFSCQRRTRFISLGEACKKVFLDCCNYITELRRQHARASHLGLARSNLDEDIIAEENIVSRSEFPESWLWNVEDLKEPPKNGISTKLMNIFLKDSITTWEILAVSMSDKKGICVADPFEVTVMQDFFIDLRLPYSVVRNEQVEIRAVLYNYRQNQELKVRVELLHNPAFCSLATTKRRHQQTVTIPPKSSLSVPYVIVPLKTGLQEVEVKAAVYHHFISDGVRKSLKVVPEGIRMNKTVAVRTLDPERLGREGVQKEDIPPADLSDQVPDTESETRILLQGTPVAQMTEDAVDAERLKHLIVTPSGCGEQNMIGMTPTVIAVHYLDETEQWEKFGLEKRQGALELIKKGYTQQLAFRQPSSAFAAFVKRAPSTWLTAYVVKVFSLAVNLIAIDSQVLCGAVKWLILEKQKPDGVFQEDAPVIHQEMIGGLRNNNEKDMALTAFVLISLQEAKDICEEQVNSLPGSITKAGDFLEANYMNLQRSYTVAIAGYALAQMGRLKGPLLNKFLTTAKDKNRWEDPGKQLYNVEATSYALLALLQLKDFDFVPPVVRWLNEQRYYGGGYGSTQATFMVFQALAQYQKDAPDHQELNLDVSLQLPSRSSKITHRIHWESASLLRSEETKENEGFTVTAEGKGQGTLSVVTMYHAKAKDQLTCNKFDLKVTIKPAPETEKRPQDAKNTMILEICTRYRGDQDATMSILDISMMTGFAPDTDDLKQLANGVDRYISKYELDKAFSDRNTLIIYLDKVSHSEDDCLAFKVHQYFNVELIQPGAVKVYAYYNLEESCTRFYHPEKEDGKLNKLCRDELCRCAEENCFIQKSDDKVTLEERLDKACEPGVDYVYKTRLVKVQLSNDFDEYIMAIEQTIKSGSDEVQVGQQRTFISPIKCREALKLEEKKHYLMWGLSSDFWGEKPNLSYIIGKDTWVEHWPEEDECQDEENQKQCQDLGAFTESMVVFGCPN

In the case of “human FXIa (activated human clotting factor XI)”, the “cleavage of the C3 a-chain to the a' chain (Western blot)” value (“cleavage of the C3 a-chain” below) (complement C3) is reported as “can cleave C3 in vitro in the absence of any complement proteases”.

In the case of “human FXa (activated human clotting factor X)”, the “cleavage of the C3 a-chain” value (complement C3) is reported as “can cleave C3 in vitro in the absence of any complement proteases”.

B1: bovine FXa (activated bovine clotting factor X) (protein)
chain: ANSFLEEVKQGNLERECLEEACSLEEAREVFEDAEQTDEFWSKYKDGDQCEGHPCLNQGHCKDGIGDYTCTCAEGFEGKNCEFSTREICSLDNGGCDQFCREERSEVRCSCAHGYVLGDDSKSCVSTERFPCGKFTQGRSRRWAIHTSEDALDASELEHYDPADLSPTESSLDLLGLNRTEPSAGEDGSQVVRIVGGRDCAEGECPWQALLVNEENEGFCGGTILNEFYVLTAAHCLHQAKRFTVRVGDRNTEQEEGNEMAHEVEMTVKHSRFVKETYDFDIAVLRLKTPIRFRRNVAPACLPEKDWAEATLMTQKTGIVSGFGRTHEKGRLSSTLKMLEVPYVDRSTCKLSSSFTITPNMFCAGYDTQPEDACQGDSGGPHVTRFKDTYFVTGIVSWGEGCARKGKFGVYTKVSNFLKWIDKIMKARAGAAGSRGHSEAPATWTVPPPLPL
For B1, the “cleavage of the C3 a-chain” value (complement C3, P01024) was “can cleave C3 in vitro in the absence of any complement proteases”.
